± gives the standard deviation of the averaged measurements.
Key:
Saccharomyces cerevisiae [1] = assay: protein stability index of tFT-peptide fusion (C-terminal peptide) (PSI (0-1 scale)); higher = more stable (slower turnover)
Description: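 MPS profiling in S. cerevisiae of the tFT-X12 degron library: putative degron peptides plus stable controls, 12 aa, fused to the C-terminus of a sfGFP-mCherry timer. Cells are FACS-sorted into 8 mCherry/sfGFP bins and deep-sequenced. PSI runs from 0 (unstable) to 1 (stable). Backgrounds are wild type, das1Δ and doa10Δ at 30 °C, and wild type, das1Δ, cdc34-1 and cdc53-1 at 37 °C; 2-3 technical replicates each.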

Saccharomyces cerevisiae [2] = assay: as above; details: genetic background: wild type; temperature: 30 C
[3] = genetic background: cdc34-1, temperature: 37 C
[4] = genetic background: cdc53-1, temperature: 37 C
[5] = genetic background: das1 deletion, temperature: 30 C
[6] = genetic background: das1 deletion, temperature: 37 C
[7] = genetic background: doa10 deletion, temperature: 30 C
[8] = genetic background: wild type, temperature: 30 C
[9] = genetic background: wild type, temperature: 37 C
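Further: PSI is a weighted mean of sequencing reads over stability bins, variants kept only with over 10 reads, mCherry proximal and sfGFP distal, peptide attached via GGGS linker.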

| Sequence | protein stability index (Saccharomyces cerevisiae [1]; [3]) | protein stability index (Saccharomyces cerevisiae [1]; [4]) | protein stability index (Saccharomyces cerevisiae [1]; [5]) | protein stability index (Saccharomyces cerevisiae [1]; [6]) | protein stability index (Saccharomyces cerevisiae [1]; [7]) | protein stability index (Saccharomyces cerevisiae [1]; [8]) | protein stability index (Saccharomyces cerevisiae [1]; [9]) | protein stability index (Saccharomyces cerevisiae [2]) |
| --- | --- | --- | --- | --- | --- | --- | --- | --- |
| CTYSLSVLFVFF | 0.396 ± 0.014 | 0.51 ± 0.067 | 0.3 ± 0.03 | 0.51 ± 0.056 | 0.252 ± 0.012 | 0.307 ± 0.035 | 0.4462 ± 0.0024 | 0.382 ± 0.024 |
| CVFFCVLVCFLS | 0.342 ± 0.0056 | 0.382 ± 0.023 | 0.302 ± 0.048 | 0.439 ± 0.006 | 0.317 ± 0.0066 | 0.3 ± 0.027 | 0.377 ± 0.0062 | 0.369 ± 0.036 |
| CVLSWSLFVVVW | 0.0234 ± 0.0015 | 0.028 ± 0.0018 | 0.0273 ± 0.0091 | 0.0441 ± 0.011 | 0.0209 ± 0.0017 | 0.0168 ± 0.0058 | 0.0346 ± 0.015 | 0.044 ± 0.026 |
| CVVFLWCGGCWV | 0.475 ± 0.013 | 0.584 ± 0.0059 | 0.346 ± 0.044 | 0.725 ± 0.085 | 0.344 ± 0.023 | 0.331 ± 0.03 | 0.734 ± 0.041 | 0.503 ± 0.076 |
| CVVLCLFCWCML | 0.358 ± 0.004 | 0.4266 ± 0.0042 | 0.314 ± 0.019 | 0.451 ± 0.007 | 0.32968 ± 0.00016 | 0.305 ± 0.021 | 0.425 ± 0.0082 | 0.347 ± 0.048 |
| CYCSIGCLIIFS | 0.2261 ± 0.0021 | 0.374 ± 0.023 | 0.238 ± 0.033 | 0.446 ± 0.0093 | 0.206 ± 0.0053 | 0.22 ± 0.023 | 0.4089 ± 0.003 | 0.378 ± 0.074 |
| DALHPCIIYLTC | 0.594 ± 0.049 | 0.565 ± 0.015 | 0.328 ± 0.035 | 0.609 ± 0.00096 | 0.217 ± 0.0055 | 0.254 ± 0.022 | 0.466 ± 0.013 | 0.341 ± 0.013 |
| DECQLCNRDWRG | 0.689 ± 0.069 | 0.739 ± 0.013 | 0.634 ± 0.015 | 0.726 ± 0.019 | 0.644 ± 0.032 | 0.657 ± 0.042 | 0.733 ± 0.018 | 0.7185 ± 0.0063 |
| DKKPMKKILLCI | 0.451 ± 0.0075 | 0.565 ± 0.068 | 0.494 ± 0.025 | 0.6477 ± 0.0033 | 0.0933 ± 0.02 | 0.0973 ± 0.0084 | 0.104 ± 0.0016 | 0.151 ± 0.029 |
| DRLRSGLSLLLA | 0.64 ± 0.014 | 0.6817 ± 0.0049 | 0.556 ± 0.018 | 0.669 ± 0.0078 | 0.365 ± 0.015 | 0.411 ± 0.02 | 0.583 ± 0.0065 | 0.4925 ± 0.0035 |
| DRQMRCVHIHYL | 0.647 ± 0.041 | 0.715 ± 0.028 | 0.646 ± 0.029 | 0.697 ± 0.011 | 0.275 ± 0.016 | 0.301 ± 0.015 | 0.532 ± 0.0088 | 0.412 ± 0.021 |
| DRYSFYGYVVVL | 0.587 ± 0.021 | 0.632 ± 0.05 | 0.512 ± 0.042 | 0.66198 ± 4.4e-05 | 0.1728 ± 0.0011 | 0.186 ± 0.02 | 0.291 ± 0.041 | 0.261 ± 0.0095 |
| DVCGVRYVLFVL | 0.57 ± 0.014 | 0.647 ± 0.018 | 0.49 ± 0.025 | 0.655 ± 0.024 | 0.416 ± 0.0086 | 0.428 ± 0.026 | 0.597 ± 0.026 | 0.502 ± 0.013 |
| DVRLVLCEMIKG | 0.587 ± 0.048 | 0.6123 ± 0.0027 | 0.414 ± 0.028 | 0.624 ± 0.0012 | 0.394 ± 0.021 | 0.426 ± 0.021 | 0.601 ± 0.0076 | 0.513 ± 0.036 |
| DVYIVLFIIKHG | 0.309 ± 0.052 | 0.395 ± 0.022 | 0.261 ± 0.052 | 0.4415 ± 0.0025 | 0.173 ± 0.0021 | 0.175 ± 0.034 | 0.3 ± 0.0092 | 0.241 ± 0.055 |
| EFFTLYDLVRFI | 0.742 ± 0.042 | 0.79 ± 0.05 | 0.669 ± 0.048 | 0.791 ± 0.05 | 0.192 ± 0.00011 | 0.232 ± 0.013 | 0.434 ± 0.04 | 0.38 ± 0.025 |
| ELTYVYRTALIA | 0.152 ± 0.004 | 0.157 ± 0.0057 | 0.204 ± 0.016 | 0.276 ± 0.0057 | 0.0966 ± 0.011 | 0.105 ± 0.014 | 0.0995 ± 0.017 | 0.183 ± 0.045 |
| EMSIISVLRVIS | 0.61 ± 0.013 | 0.641 ± 0.017 | 0.489 ± 0.02 | 0.651 ± 0.021 | 0.181 ± 0.011 | 0.218 ± 0.034 | 0.395 ± 0.015 | 0.369 ± 0.035 |
| ERFILVGMFGSW | 0.702 ± 0.036 | 0.717 ± 0.015 | 0.519 ± 0.017 | 0.708 ± 0.0095 | 0.532 ± 0.026 | 0.529 ± 0.027 | 0.701 ± 0.022 | 0.532 ± 0.048 |
| ERWSPWIVVFTN | 0.464 ± 0.015 | 0.505 ± 0.012 | 0.421 ± 0.034 | 0.612 ± 0.024 | 0.173 ± 0.019 | 0.185 ± 0.022 | 0.278 ± 0.029 | 0.278 ± 0.029 |

| Sequence | protein stability index (Saccharomyces cerevisiae [1]; [3]) | protein stability index (Saccharomyces cerevisiae [1]; [4]) | protein stability index (Saccharomyces cerevisiae [1]; [5]) | protein stability index (Saccharomyces cerevisiae [1]; [6]) | protein stability index (Saccharomyces cerevisiae [1]; [7]) | protein stability index (Saccharomyces cerevisiae [1]; [8]) | protein stability index (Saccharomyces cerevisiae [1]; [9]) | protein stability index (Saccharomyces cerevisiae [2]) |
| --- | --- | --- | --- | --- | --- | --- | --- | --- |
| ESVPLLIVLHLV | 0.304 ± 0.058 | 0.62 ± 0.085 | 0.415 ± 0.032 | 0.5979 ± 0.0039 | 0.0857 ± 0.02 | 0.0885 ± 0.0083 | 0.07176 ± 0.00058 | 0.0881 ± 0.034 |
| ETVHVISLIAIG | 0.428 ± 0.021 | 0.5059 ± 0.0027 | 0.33 ± 0.047 | 0.527 ± 0.017 | 0.279 ± 0.014 | 0.33 ± 0.021 | 0.49577 ± 7e-05 | 0.47 ± 0.037 |
| EWFFCLGLFRFH | 0.567 ± 0.022 | 0.6045 ± 0.0057 | 0.472 ± 0.044 | 0.6152 ± 0.0061 | 0.208 ± 0.022 | 0.235 ± 0.025 | 0.433 ± 0.00045 | 0.369 ± 0.045 |
| FASVFCVVTGYV | 0.551 ± 0.037 | 0.611 ± 0.027 | 0.423 ± 0.018 | 0.597 ± 0.0062 | 0.406 ± 0.01 | 0.429 ± 0.013 | 0.58585 ± 7.1e-07 | 0.48 ± 0.072 |
| FCALWLCFRLMV | 0.35 ± 0.024 | 0.403 ± 0.014 | 0.319 ± 0.028 | 0.476 ± 0.03 | 0.14 ± 0.014 | 0.149 ± 0.017 | 0.265 ± 0.028 | 0.174 ± 0.037 |
| FCCLVLDLEVSG | 0.4314 ± 0.0037 | 0.548 ± 0.019 | 0.36 ± 0.032 | 0.5627 ± 0.0037 | 0.331 ± 0.0069 | 0.372 ± 0.016 | 0.541 ± 0.0084 | 0.424 ± 0.0079 |
| FCLFMFVPLLPL | 0.531 ± 0.032 | 0.589 ± 0.013 | 0.455 ± 0.036 | 0.5868 ± 0.0043 | 0.4421 ± 0.0041 | 0.452 ± 0.027 | 0.5642 ± 0.003 | 0.453 ± 0.052 |
| FLPPVHRCFSIF | 0.671 ± 0.037 | 0.742 ± 0.013 | 0.653 ± 0.022 | 0.745 ± 0.021 | 0.172 ± 0.014 | 0.193 ± 0.032 | 0.3915 ± 0.0028 |  |
| GFLFVLCAWGFF | 0.178 ± 0.017 | 0.321 ± 0.039 | 0.227 ± 0.022 | 0.386 ± 0.019 | 0.21 ± 0.0069 | 0.236 ± 0.0048 | 0.318 ± 0.0066 |  |
| GGGWGGRWGRLC | 0.639 ± 0.047 | 0.754 ± 0.0091 | 0.6543 ± 0.0029 | 0.75462 ± 8e-05 | 0.193 ± 0.021 | 0.218 ± 0.035 | 0.479 ± 0.0076 |  |
| GPPVPLSPPLSP | 0.701 ± 0.042 | 0.695 ± 0.045 | 0.35 ± 0.024 | 0.5534 ± 0.0029 | 0.33 ± 0.0094 | 0.341 ± 0.014 | 0.532 ± 0.039 |  |
| KQSGLQIKRRKL | 0.711 ± 0.043 | 0.75156 ± 0.00069 | 0.617 ± 0.019 | 0.7734 ± 0.0051 | 0.639 ± 0.07 | 0.7 ± 0.056 | 0.763 ± 0.061 |  |
| LVCSLLVPSSFF | 0.679 ± 0.0081 | 0.7 ± 0.074 | 0.634 ± 0.016 | 0.722 ± 0.0063 | 0.667 ± 0.035 | 0.645 ± 0.011 | 0.7039 ± 0.0056 |  |
| PPPPPPPAPASP |  |  | 0.665 ± 0.13 | 0.68 ± 0.048 | 0.553 ± 0.17 | 0.635 ± 0.089 | 0.629 ± 0.032 |  |
| QRAVGLANFTIK | 0.672 ± 0.065 | 0.7512 ± 0.0062 | 0.647 ± 0.043 | 0.7328 ± 0.0028 | 0.646 ± 0.048 | 0.669 ± 0.032 | 0.709 ± 0.018 |  |
| RPPPYSPRLFHN | 0.469 ± 0.0049 | 0.706 ± 0.031 | 0.67 ± 0.031 | 0.75 ± 0.01 | 0.0941 ± 0.065 | 0.129 ± 0.023 | 0.179 ± 0.067 |  |
| RSRNSEYILVYN | 0.655 ± 0.018 | 0.672 ± 0.039 | 0.397 ± 0.045 | 0.6343 ± 0.0031 | 0.318 ± 0.012 | 0.391 ± 0.014 | 0.66 ± 0.025 |  |
| TGGGGRVSLGGG | 0.337 ± 0.053 | 0.427 ± 0.032 | 0.384 ± 0.021 | 0.44 ± 0.022 | 0.374 ± 0.013 | 0.372 ± 0.0084 | 0.416 ± 0.044 |  |
| VFYWGGVLCGWG | 0.337 ± 0.035 | 0.502 ± 0.074 | 0.309 ± 0.03 | 0.514 ± 0.014 | 0.297 ± 0.019 | 0.326 ± 0.036 | 0.439 ± 0.027 |  |
| WLISLLVQPVFL | 0.295 ± 0.0052 | 0.3167 ± 0.0022 | 0.276 ± 0.029 | 0.4053 ± 0.0021 | 0.233 ± 0.0031 | 0.273 ± 0.02 | 0.37 ± 0.0047 |  |
